Measurements from patent publication US20230322940A1 (published 2023).

Target: CD44 on CD44-positive and CD133-positive glioma stem cells GSC20 (UniProt P16070 21-742)
Assay: cell-based or functional assay

B1: fusion protein shown in SEQ ID NO. 6 (anti-CD44 single-chain antibody, CD28, CD3, T2A, anti-TIM3 single-chain antibody), expressed on CAR-T 4 cells (other)
chain: QVQLVESGGGVVQPGRSLRLSCAASGFTFSSYGMHWVRQAPGKGLEWVAVIWYDGSNKFYADSVKGRFTISRDNSKNTLYLQMNSLRAEDTAVYYCARRSDYRGYYGMDVWGQGTTVTVSSGSTSGGGSGGGSGGGGSSEIVLTQSPATLSLSPGERATLSCRASQSVINYLAWYQQKPGQAPRLLIYDASNRASGIPARFSGSGSGTDFTLTISSLEPEDFAVYYCQQRRNWPLTFGGGTKVEIKTTTPAPRPPTPAPTIASQPLSLRPEACRPAAGGAVHTRGLDFACDIYIWAPLAGTCGVLLLSLVITLYCRSKRSRLLHSDYMNMTPRRPGPTRKHYQPYAPPRDFAAYRSRVKFSRSADAPAYKQGQNQLYNELNLGRREEYDVLDKRRGRDPEMGGKPRRKNPQEGLYNELQKDKMAEAYSEIGMKGERRRGKGHDGLYQGLSTATKDTYDALHMQALPPREGRGSLLTCGDVEENPGPMTNKCLLQIALLLCFSTTALSQVQLQQSGPGLVKPSHTLSLTCTVSGGSISSGGYYWSWTRQHPGMGLEWIGYISYSGSIYYTPSLKSRLTISVDTSKNQFSLKLSSVTAADTAVYYCASLDSWGSNRDYWGQGTLVTVSSGGGGSEIVLTQSPATLSLSPGERATLSCRASQSVSSYLAWYQQKPGQAPRLLIYDASNRATGIPARFSGSGSGTDFTLTISSLEPEDFAVYYCQQRSNWPLTFGGGTKVEIK
  Lysis rate of glioma stem cells by CAR-T cells (LDH release), effect-target ratio 1:1: 22.2%
  Lysis rate of glioma stem cells by CAR-T cells (LDH release), effect-target ratio 2:1: 37.3%
  Lysis rate of glioma stem cells by CAR-T cells (LDH release), effect-target ratio 3:1: 56.2%
  Lysis rate of glioma stem cells by CAR-T cells (LDH release), effect-target ratio 5:1: 61.4%

B2: fusion protein shown in SEQ ID NO. 4 (anti-CD44 single-chain antibody, anti-CD133 single-chain antibody, CD28, CD3), expressed on CAR-T 2 cells (other)
chain: QVQLVESGGGVVQPGRSLRLSCAASGFTFSSYGMHWVRQAPGKGLEWVAVIWYDGSNKFYADSVKGRFTISRDNSKNTLYLQMNSLRAEDTAVYYCARRSDYRGYYGMDVWGQGTTVTVSSGSTSGGGSGGGSGGGGSSEIVLTQSPATLSLSPGERATLSCRASQSVINYLAWYQQKPGQAPRLLIYDASNRASGIPARFSGSGSGTDFTLTISSLEPEDFAVYYCQQRRNWPLTFGGGTKVEIKGGGGSGGGGSGGGGSQVQLVQSGAEVKKPGASVKVSCKASGYTFTDFEMHWVRQAPGQGLEWMGDIDPGTGDTAYNLKFKGRVTMTTDTSTSTAYMELRSLRSDDTAVYYCALGAFVYWGQGTLVTVSSGSTSGGGSGGGSGGGGSSDVVMTQSPLSLPVTPGEPASISCRSSQSLANSYGNTYLSWYLQKPGQSPQLLIYGISNRFSGVPDRFSGSGSGTDFTLKISRVEAEDVGVYYCLQGTHQPYTFGQGTKLEIKTTTPAPRPPTPAPTIASQPLSLRPEACRPAAGGAVHTRGLDFACDIYIWAPLAGTCGVLLLSLVITLYCRSKRSRLLHSDYMNMTPRRPGPTRKHYQPYAPPRDFAAYRSRVKFSRSADAPAYKQGQNQLYNELNLGRREEYDVLDKRRGRDPEMGGKPRRKNPQEGLYNELQKDKMAEAYSEIGMKGERRRGKGHDGLYQGLSTATKDTYDALHMQALPPR
  Lysis rate of glioma stem cells by CAR-T cells (LDH release), effect-target ratio 1:1: 14%
  Lysis rate of glioma stem cells by CAR-T cells (LDH release), effect-target ratio 2:1: 23.2%
  Lysis rate of glioma stem cells by CAR-T cells (LDH release), effect-target ratio 3:1: 41%
  Lysis rate of glioma stem cells by CAR-T cells (LDH release), effect-target ratio 5:1: 56.9%

B3: fusion protein shown in SEQ ID NO. 5 (anti-CD44 single-chain antibody, CD28, truncated body of IL7Rα, CD3), expressed on CAR-T 3 cells (other)
chain: QVQLVESGGGVVQPGRSLRLSCAASGFTFSSYGMHWVRQAPGKGLEWVAVIWYDGSNKFYADSVKGRFTISRDNSKNTLYLQMNSLRAEDTAVYYCARRSDYRGYYGMDVWGQGTTVTVSSGSTSGGGSGGGSGGGGSSEIVLTQSPATLSLSPGERATLSCRASQSVINYLAWYQQKPGQAPRLLIYDASNRASGIPARFSGSGSGTDFTLTISSLEPEDFAVYYCQQRRNWPLTFGGGTKVEIKTTTPAPRPPTPAPTIASQPLSLRPEACRPAAGGAVHTRGLDFACDIYIWAPLAGTCGVLLLSLVITLYCRSKRSRLLHSDYMNMTPRRPGPTRKHYQPYAPPRDFAAYRSKKRIKPIVWPSLPDHKKTLEHLCKKPRKNLNVSFNPESFLDCQIHRVDDIQARDEVEGFLQDTFPQQLEESEKQRLLGSNQEEAYVTMSSFYQNQRVKFSRSADAPAYKQGQNQLYNELNLGRREEYDVLDKRRGRDPEMGGKPRRKNPQEGLYNELQKDKMAEAYSEIGMKGERRRGKGHDGLYQGLSTATKDTYDALHMQALPPR
  Lysis rate of glioma stem cells by CAR-T cells (LDH release), effect-target ratio 1:1: 15.2%
  Lysis rate of glioma stem cells by CAR-T cells (LDH release), effect-target ratio 2:1: 35.2%
  Lysis rate of glioma stem cells by CAR-T cells (LDH release), effect-target ratio 3:1: 44%
  Lysis rate of glioma stem cells by CAR-T cells (LDH release), effect-target ratio 5:1: 62.5%

B4: fusion protein shown in SEQ ID NO. 3 (anti-CD44 single-chain antibody, CD28, CD3), expressed on CAR-T 1 cells (other)
chain: QVQLVESGGGVVQPGRSLRLSCAASGFTFSSYGMHWVRQAPGKGLEWVAVIWYDGSNKFYADSVKGRFTISRDNSKNTLYLQMNSLRAEDTAVYYCARRSDYRGYYGMDVWGQGTTVTVSSGSTSGGGSGGGSGGGGSSEIVLTQSPATLSLSPGERATLSCRASQSVINYLAWYQQKPGQAPRLLIYDASNRASGIPARFSGSGSGTDFTLTISSLEPEDFAVYYCQQRRNWPLTFGGGTKVEIKTTTPAPRPPTPAPTIASQPLSLRPEACRPAAGGAVHTRGLDFACDIYIWAPLAGTCGVLLLSLVITLYCRSKRSRLLHSDYMNMTPRRPGPTRKHYQPYAPPRDFAAYRSRVKFSRSADAPAYKQGQNQLYNELNLGRREEYDVLDKRRGRDPEMGGKPRRKNPQEGLYNELQKDKMAEAYSEIGMKGERRRGKGHDGLYQGLSTATKDTYDALHMQALPPR
  Lysis rate of glioma stem cells by CAR-T cells (LDH release), effect-target ratio 1:1: 9.93%
  Lysis rate of glioma stem cells by CAR-T cells (LDH release), effect-target ratio 2:1: 12.2%
  Lysis rate of glioma stem cells by CAR-T cells (LDH release), effect-target ratio 3:1: 35%
  Lysis rate of glioma stem cells by CAR-T cells (LDH release), effect-target ratio 5:1: 57.3%

B5: fusion protein shown in SEQ ID NO. 7 (anti-CD44 single-chain antibody, CD28, truncated body of IL7Rα, CD3, T2A, anti-TIM3 single-chain antibody), expressed on … (other)
chain: QVQLVESGGGVVQPGRSLRLSCAASGFTFSSYGMHWVRQAPGKGLEWVAVIWYDGSNKFYADSVKGRFTISRDNSKNTLYLQMNSLRAEDTAVYYCARRSDYRGYYGMDVWGQGTTVTVSSGSTSGGGSGGGSGGGGSSEIVLTQSPATLSLSPGERATLSCRASQSVINYLAWYQQKPGQAPRLLIYDASNRASGIPARFSGSGSGTDFTLTISSLEPEDFAVYYCQQRRNWPLTFGGGTKVEIKTTTPAPRPPTPAPTIASQPLSLRPEACRPAAGGAVHTRGLDFACDIYIWAPLAGTCGVLLLSLVITLYCRSKRSRLLHSDYMNMTPRRPGPTRKHYQPYAPPRDFAAYRSKKRIKPIVWPSLPDHKKTLEHLCKKPRKNLNVSFNPESFLDCQIHRVDDIQARDEVEGFLQDTFPQQLEESEKQRLLGSNQEEAYVTMSSFYQNQRVKFSRSADAPAYKQGQNQLYNELNLGRREEYDVLDKRRGRDPEMGGKPRRKNPQEGLYNELQKDKMAEAYSEIGMKGERRRGKGHDGLYQGLSTATKDTYDALHMQALPPREGRGSLLTCGDVEENPGPMTNKCLLQIALLLCFSTTALSQVQLQQSGPGLVKPSHTLSLTCTVSGGSISSGGYYWSWTRQHPGMGLEWIGYISYSGSIYYTPSLKSRLTISVDTSKNQFSLKLSSVTAADTAVYYCASLDSWGSNRDYWGQGTLVTVSSGGGGSEIVLTQSPATLSLSPGERATLSCRASQSVSSYLAWYQQKPGQAPRLLIYDASNRATGIPARFSGSGSGTDFTLTISSLEPEDFAVYYCQQRSNWPLTFGGGTKVEIK
  Lysis rate of glioma stem cells by CAR-T cells (LDH release), effect-target ratio 1:1: 30.3%
  Lysis rate of glioma stem cells by CAR-T cells (LDH release), effect-target ratio 2:1: 48.5%
  Lysis rate of glioma stem cells by CAR-T cells (LDH release), effect-target ratio 3:1: 51.2%
  Lysis rate of glioma stem cells by CAR-T cells (LDH release), effect-target ratio 5:1: 81.2%

B6: fusion protein shown in SEQ ID NO. 8 (anti-CD44 single-chain antibody, anti-CD133 single-chain antibody, CD28, truncated body of IL7Rα, CD3, T2A, anti-TIM3 … (other)
chain: QVQLVESGGGVVQPGRSLRLSCAASGFTFSSYGMHWVRQAPGKGLEWVAVIWYDGSNKFYADSVKGRFTISRDNSKNTLYLQMNSLRAEDTAVYYCARRSDYRGYYGMDVWGQGTTVTVSSGSTSGGGSGGGSGGGGSSEIVLTQSPATLSLSPGERATLSCRASQSVINYLAWYQQKPGQAPRLLIYDASNRASGIPARFSGSGSGTDFTLTISSLEPEDFAVYYCQQRRNWPLTFGGGTKVEIKGGGGSGGGGSGGGGSQVQLVQSGAEVKKPGASVKVSCKASGYTFTDFEMHWVRQAPGQGLEWMGDIDPGTGDTAYNLKFKGRVTMTTDTSTSTAYMELRSLRSDDTAVYYCALGAFVYWGQGTLVTVSSGSTSGGGSGGGSGGGGSSDVVMTQSPLSLPVTPGEPASISCRSSQSLANSYGNTYLSWYLQKPGQSPQLLIYGISNRFSGVPDRFSGSGSGTDFTLKISRVEAEDVGVYYCLQGTHQPYTFGQGTKLEIKTTTPAPRPPTPAPTIASQPLSLRPEACRPAAGGAVHTRGLDFACDIYIWAPLAGTCGVLLLSLVITLYCRSKRSRLLHSDYMNMTPRRPGPTRKHYQPYAPPRDFAAYRSKKRIKPIVWPSLPDHKKTLEHLCKKPRKNLNVSFNPESFLDCQIHRVDDIQARDEVEGFLQDTFPQQLEESEKQRLLGSNQEEAYVTMSSFYQNQRVKFSRSADAPAYKQGQNQLYNELNLGRREEYDVLDKRRGRDPEMGGKPRRKNPQEGLYNELQKDKMAEAYSEIGMKGERRRGKGHDGLYQGLSTATKDTYDALHMQALPPREGRGSLLTCGDVEENPGPMTNKCLLQIALLLCFSTTALSQVQLQQSGPGLVKPSHTLSLTCTVSGGSISSGGYYWSWTRQHPGMGLEWIGYISYSGSIYYTPSLKSRLTISVDTSKNQFSLKLSSVTAADTAVYYCASLDSWGSNRDYWGQGTLVTVSSGGGGSEIVLTQSPATLSLSPGERATLSCRASQSVSSYLAWYQQKPGQAPRLLIYDASNRATGIPARFSGSGSGTDFTLTISSLEPEDFAVYYCQQRSNWPLTFGGGTKVEIK
  Lysis rate of glioma stem cells by CAR-T cells (LDH release), effect-target ratio 1:1: 31.1%
  Lysis rate of glioma stem cells by CAR-T cells (LDH release), effect-target ratio 2:1: 50%
  Lysis rate of glioma stem cells by CAR-T cells (LDH release), effect-target ratio 3:1: 62.8%
  Lysis rate of glioma stem cells by CAR-T cells (LDH release), effect-target ratio 5:1: 86.8%
